Test results reported in publication PMC8849053.
“And” between values parts separate entries of the source, which are not always exact repeats. Equal values may be shown once.

How the values were obtained:
[1] = target: SARS-CoV-2 spike protein S2 (SARS-CoV-2); experiment: ITC
[2] = target: SARS-CoV-2 spike protein S1 (SARS-CoV-2); experiment: ITC

“truncated canavalin (from UniProt P10562 242-445) (domain or fragment)” was tested, and the Kd [1] was 10 µM and 80 µM, the dH [1] was -0.8 kcal/mol and the Kd [2] was 20 µM and 100 µM. The dH [2] was -6 kcal/mol and -7 kcal/mol.
